The target in this experiment is T1, SARS-CoV-2 spike S1 domain (D614G) (SARS-CoV-2, Wuhan-Hu-1 background with …, UniProt A0A6H1PJZ3, strain).
T1 construct: also called D614G S1 variant; source: bought: Sino Biological
Nature of the experiment: SPR. To be noted: both partners purified.

B1: P4A1 (antibody, V domains shown)
VH: EVQLVESGGGLIQPGGSLRLSCAASGFIVSSNYMSWVRQAPGKGLEWVSIIYSGGSTFYADSVKGRFTISRDNSKNTLYLQMNSLRVEDTAVYYCARDLQELGSLDYWGQGTLVTVSS
VL: DIQMTQSPSSVSASVGDRVTITCRASQGISSWLAWYQQKPGKAPKLLIYAASSLQSGVPSRFSGSGSGTDFTLTISSLQPEDFATYYCQEANSFPYTFGQGTKLEIK
notes: also called P4A1 (IgG1); IgG1 form P4A1
In the case of B1, the binding result is recorded as “binds”.

(Values after article PMC8113581 (Nature Communications, 2021).)
